Test results reported in paper PMC10611751 (2023).
Read-outs that look alike come from different tables or passages of the source.

T1: Ankyrin-G ANK repeats 8-14 (UniProt O70511 275-500)
T1 chain: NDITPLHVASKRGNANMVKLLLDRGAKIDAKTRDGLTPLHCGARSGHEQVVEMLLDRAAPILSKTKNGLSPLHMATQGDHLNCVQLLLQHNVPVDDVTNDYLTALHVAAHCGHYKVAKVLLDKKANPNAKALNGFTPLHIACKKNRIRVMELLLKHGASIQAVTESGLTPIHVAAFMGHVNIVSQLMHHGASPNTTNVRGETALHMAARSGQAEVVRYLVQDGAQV

T2: AnkG R6-24 (Rattus norvegicus)
T2 chain: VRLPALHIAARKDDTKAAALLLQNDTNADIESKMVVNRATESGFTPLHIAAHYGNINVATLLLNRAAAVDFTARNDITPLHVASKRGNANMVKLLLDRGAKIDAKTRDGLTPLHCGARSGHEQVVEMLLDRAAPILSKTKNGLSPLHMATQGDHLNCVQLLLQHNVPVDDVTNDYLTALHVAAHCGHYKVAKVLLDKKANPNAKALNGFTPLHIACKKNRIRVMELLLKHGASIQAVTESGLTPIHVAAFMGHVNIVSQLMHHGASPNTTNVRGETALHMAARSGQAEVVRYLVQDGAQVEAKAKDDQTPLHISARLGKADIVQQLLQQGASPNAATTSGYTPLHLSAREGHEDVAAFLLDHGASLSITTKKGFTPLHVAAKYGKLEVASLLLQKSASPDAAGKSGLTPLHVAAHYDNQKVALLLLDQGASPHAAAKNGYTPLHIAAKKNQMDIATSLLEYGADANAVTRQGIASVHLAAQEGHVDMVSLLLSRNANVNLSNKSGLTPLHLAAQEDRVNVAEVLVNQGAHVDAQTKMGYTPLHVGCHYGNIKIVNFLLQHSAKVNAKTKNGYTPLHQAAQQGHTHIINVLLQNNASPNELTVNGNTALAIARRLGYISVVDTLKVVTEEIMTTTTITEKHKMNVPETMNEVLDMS

T3: p120 catenin 324-938 (mouse, UniProt P30999 324-938)
T3 chain: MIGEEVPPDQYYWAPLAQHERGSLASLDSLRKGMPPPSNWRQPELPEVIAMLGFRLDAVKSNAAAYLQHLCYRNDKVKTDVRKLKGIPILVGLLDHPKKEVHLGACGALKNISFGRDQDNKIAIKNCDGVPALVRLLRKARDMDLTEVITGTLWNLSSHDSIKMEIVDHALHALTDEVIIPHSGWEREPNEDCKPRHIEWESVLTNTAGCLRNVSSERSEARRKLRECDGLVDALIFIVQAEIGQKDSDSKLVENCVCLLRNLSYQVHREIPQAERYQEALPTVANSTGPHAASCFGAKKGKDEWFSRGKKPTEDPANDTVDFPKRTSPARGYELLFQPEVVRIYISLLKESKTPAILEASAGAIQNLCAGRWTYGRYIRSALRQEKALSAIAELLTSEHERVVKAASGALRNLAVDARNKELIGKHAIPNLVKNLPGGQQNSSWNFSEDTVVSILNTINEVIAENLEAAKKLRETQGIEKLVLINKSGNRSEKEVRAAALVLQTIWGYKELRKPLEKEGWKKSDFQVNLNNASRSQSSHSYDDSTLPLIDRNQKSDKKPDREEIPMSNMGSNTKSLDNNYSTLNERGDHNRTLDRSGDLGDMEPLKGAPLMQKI

T4: full-length β-catenin 1-781 (mouse, UniProt Q02248 1-781)
T4 chain: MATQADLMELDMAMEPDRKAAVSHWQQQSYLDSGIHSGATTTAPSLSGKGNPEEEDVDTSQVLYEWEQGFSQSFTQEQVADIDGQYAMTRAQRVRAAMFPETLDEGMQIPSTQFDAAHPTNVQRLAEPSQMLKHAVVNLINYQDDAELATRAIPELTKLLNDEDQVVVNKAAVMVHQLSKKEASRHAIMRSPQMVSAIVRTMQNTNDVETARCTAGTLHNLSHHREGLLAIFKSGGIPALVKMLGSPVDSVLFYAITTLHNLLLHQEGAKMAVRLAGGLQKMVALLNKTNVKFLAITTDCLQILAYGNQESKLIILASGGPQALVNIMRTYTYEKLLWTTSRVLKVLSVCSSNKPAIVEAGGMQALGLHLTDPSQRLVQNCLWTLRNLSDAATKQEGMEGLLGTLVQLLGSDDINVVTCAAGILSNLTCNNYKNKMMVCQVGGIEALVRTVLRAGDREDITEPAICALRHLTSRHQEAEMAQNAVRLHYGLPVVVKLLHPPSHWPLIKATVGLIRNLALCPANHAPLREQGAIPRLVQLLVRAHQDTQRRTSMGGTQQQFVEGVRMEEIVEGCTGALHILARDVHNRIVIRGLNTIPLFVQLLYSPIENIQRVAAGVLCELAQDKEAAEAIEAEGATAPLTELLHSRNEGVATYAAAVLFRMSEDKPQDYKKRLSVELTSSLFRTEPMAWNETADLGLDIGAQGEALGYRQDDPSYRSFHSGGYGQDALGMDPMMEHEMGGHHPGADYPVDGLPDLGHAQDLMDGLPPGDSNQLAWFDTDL

B1: E-cadherin C-terminal domain (residues 734-884) (domain or fragment)
chain: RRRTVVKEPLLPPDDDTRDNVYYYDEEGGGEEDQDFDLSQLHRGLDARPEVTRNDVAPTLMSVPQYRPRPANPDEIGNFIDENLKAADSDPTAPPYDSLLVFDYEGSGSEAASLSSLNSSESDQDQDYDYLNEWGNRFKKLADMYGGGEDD
B2: Ankyrin-G 24 ANK repeats (residues 38-855) (domain or fragment)
chain: KSDANASYLRAARAGHLEKALDYIKNGVDVNICNQNGLNALHLASKEGHVEVVSELLQREANVDAATKKGNTALHIASLAGQAEVVKVLVTNGANVNAQSQNGFTPLYMAAQENHLEVVRFLLDNGASQSLATEDGFTPLAVALQQGHDQVVSLLLENDTKGKVRLPALHIAARKDDTKAAALLLQNDTNADIESKMVVNRATESGFTPLHIAAHYGNINVATLLLNRAAAVDFTARNDITPLHVASKRGNANMVKLLLDRGAKIDAKTRDGLTPLHCGARSGHEQVVEMLLDRAAPILSKTKNGLSPLHMATQGDHLNCVQLLLQHNVPVDDVTNDYLTALHVAAHCGHYKVAKVLLDKKANPNAKALNGFTPLHIACKKNRIRVMELLLKHGASIQAVTESGLTPIHVAAFMGHVNIVSQLMHHGASPNTTNVRGETALHMAARSGQAEVVRYLVQDGAQVEAKAKDDQTPLHISARLGKADIVQQLLQQGASPNAATTSGYTPLHLSAREGHEDVAAFLLDHGASLSITTKKGFTPLHVAAKYGKLEVASLLLQKSASPDAAGKSGLTPLHVAAHYDNQKVALLLLDQGASPHAAAKNGYTPLHIAAKKNQMDIATSLLEYGADANAVTRQGIASVHLAAQEGHVDMVSLLLSRNANVNLSNKSGLTPLHLAAQEDRVNVAEVLVNQGAHVDAQTKMGYTPLHVGCHYGNIKIVNFLLQHSAKVNAKTKNGYTPLHQAAQQGHTHIINVLLQNNASPNELTVNGNTALAIARRLGYISVVDTLKVVTEEIMTTTTITEKHKMNVPETMNEVLDMS
B3: E-cadherin 776-884–AnkG R1-24 complex (complex)
chain 1: not shown
chain 2: B2 chain
B4: E-cadherin CTD–AnkG R1-24 complex (complex)
chain 1: not shown
chain 2: B2 chain

Experiments:
Experiment in all cases: ITC
[1] = target: T1, Ankyrin-G ANK repeats 8-14
AnkG R6-24 = target: T2, AnkG R6-24
p120 catenin 324-938 = target: T3, p120 catenin 324-938
[2] = target: T4, full-length β-catenin 1-781
[3] = target: B2
[4] = target: E-cadherin CTD site-1, 2 to A (mouse, UniProt P09803 734-884, Y755A | Y756A | Y757A | Y829A | Y837A)
[5] = target: E-cadherin CTD site-2, 3 to A (mouse, UniProt P09803 734-884, Y829A | Y837A | Y861A | Y863A | W867A)
[6] = target: E-cadherin CTD site-3 to A (mouse, UniProt P09803 734-884, Y861A | Y863A | W867A)
[7] = target: E-cadherin CTD site-1, 3 to A (mouse, UniProt P09803 734-884, Y755A | Y756A | Y757A | Y861A | Y863A | W867A)
[8] = target: E-cadherin CTD site-2 to A (mouse, UniProt P09803 734-884, Y829A | Y837A)
[9] = target: E-cadherin CTD site-1 to A (mouse, UniProt P09803 734-884, Y755A | Y756A | Y757A)
[10] = target: T4, full-length β-catenin 1-781
[11] = target: T4, full-length β-catenin 1-781

Binder: B1
- Kd [1]: 5000 nM
- Kd (AnkG R6-24): 2900 nM
- Kd (p120 catenin 324-938): 1700 nM
- Kd [2]: 36 nM
- Kd [3]: 2800 nM

Binder: B2
- Kd [4]: 6300 nM
- Kd [5]: 3300 nM
- Kd [6]: 4200 nM
- Kd [7]: 4900 nM
- Kd [8]: 2900 nM
- Kd [9]: 2000 nM

Binder: B3
- Kd [10]: 80 nM

Binder: B4
- Kd [11]: 98 nM
